Reference: patent US11021533 (dated 2021)

B1: ZIKV-190 (antibody, V domains shown)
VH: EVQLVESGGGLIQPGGSLRLSCAASGFTFSSYAMSWVRQAPGKGLEWVSAISGSGGSTYYADSVKGRFTISRDNSKNTLSLQMNSLRAEDTAVYYCARAFYYDFWTFDYWGQGTLVTVSS
VL: QSALTQPRSVSGSPGQSVTISCTGTSSDVGGYNYVSWYQQHPGKAPKLMIYAVTKRPSGVPDRFSGSKSGNTASLTISGLQAEDEADYYCCSYAGSYTYVVFGGGTKLTVL
B2: ZIKV-204 (antibody, V domains shown)
VH: QVTLRESGPALLKPTQTLTLTCTFSGFSLSTNETCVSWIRQPPGKALEWLALIDWDDDQYSSTSLAARLTVSKDTSKNQVVLTMTNVAPVDTATYYCALTRPTLTAQNGDKYYNYYYGMDVWGQGTLVTVSS
VL: EIVLTQSPGTLSLSPGERATLSCRASQSVSSMYLAWYQQKRGQPPRLLIYGTFNRATGIPDRFSGSGSGTDFTLTISRLEPEDFAVYYCQQYGSSSFTFGGGTKVEIK
B3: ZIKV-195 (antibody, V domains shown)
VH: QVQVVESGGGVVQPGRSLRLSCAASGFTFSSSAMHWVRQAPGKGLEWVAVISYDGSNKYYGDSVKGRFTISRDNSKNTLYLQMHSLRAEDTAVYYCAKDRDAYNTVGYFAYYYGMDVWGQGTLVTVSS
VL: QSVLTQPPSVSEAPRQRVTISCSGSSSNIGNNAVNWYQQLPGKAPKLLIYYDDLLPSGVSDRFSGSKSGTSASLAISGLQSEDEADYYCAAWDDSLTRYVFGTGTKVTVL
B4: ZIKV-88 (antibody, V domains shown)
VH: QVQLLESGGGVVQPGRSLRLSCVASGLTFSTSAMHWVRQAPGKGLEWVAVISYDGSYKFYADSVRDQFTISRDNSKTTLYLQMDGLTPEDTAVYYCARGYNDDSSGSYWYFDLWGRGTLVTVSS
VL: QSVLTQPPSVSAAPGQKVTMSCSGSSSNIGSNFVSWYQQLPGTAPKVLIFDNNQRPSGIPDRFSGSKSGTSATLAITGLQPGDEAVYHCGTWDSSLTFAVFGGGTKLTVL
B5: ZIKV-19 (antibody, V domains shown)
VH: QVQLVQSGPEVKKPGSSVKVSCKASGVSFNTYEISWVRQAPGQGLEWMGRIIPIFATPTYALKFQGRVTITTDESTTTGYMELSSLRSEDTAVYYCAGRPYGPGSWLPLDVWGQGTLVTVSS
VL: DIVMTQSPSSLSASVGDRVTITCRASQGISSYLAWYQQKPGKLPKLLIYAASTLQSGVPSRFSGSGSGTDFTLTISSLQPEDVAAYYCQKYDSAPFTFGPGTKVDLK

These binders were tested against ZIKV E protein ectodomain (UniProt A0A024B7W1 291-745) (assay: ELISA).
Sequence of ZIKV E protein ectodomain (A0A024B7W1 291-745): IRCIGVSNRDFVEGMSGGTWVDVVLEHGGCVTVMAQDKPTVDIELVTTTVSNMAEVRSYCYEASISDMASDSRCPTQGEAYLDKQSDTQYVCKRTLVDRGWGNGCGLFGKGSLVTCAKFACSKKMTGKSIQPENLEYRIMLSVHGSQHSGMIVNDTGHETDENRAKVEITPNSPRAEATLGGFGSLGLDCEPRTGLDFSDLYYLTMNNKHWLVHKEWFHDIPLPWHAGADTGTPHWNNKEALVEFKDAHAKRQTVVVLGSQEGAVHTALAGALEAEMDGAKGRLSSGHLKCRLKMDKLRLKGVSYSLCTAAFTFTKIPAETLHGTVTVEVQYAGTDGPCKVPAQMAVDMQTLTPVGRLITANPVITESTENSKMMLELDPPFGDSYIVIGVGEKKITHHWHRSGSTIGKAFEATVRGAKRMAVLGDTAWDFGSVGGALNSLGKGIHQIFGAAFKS
B1 showed an EC50 of 0.082 µg/mL.
B2 showed an EC50 of 0.048 µg/mL.
For B3, the EC50 was 0.695 µg/mL.
With B4 the EC50 was 0.07 µg/mL.
Binder B5 has an EC50 of 0.165 µg/mL.
